# Measured values taken from PMC9633819 (Nature Communications, 2022).
# Changes are numbered by the printed parent chain. “And” between values parts separate entries of the source, which are not always exact repeats. Equal entries are not always repeated.
# T1: contactin 1^fe HM (full ectodomain, residues 21–996), C-terminally biotinylated SPR ligand (mouse, UniProt P12960 21-996, biotin on the C-terminal biotin acceptor peptide; N-linked high mannose glycans)
# T1 chain: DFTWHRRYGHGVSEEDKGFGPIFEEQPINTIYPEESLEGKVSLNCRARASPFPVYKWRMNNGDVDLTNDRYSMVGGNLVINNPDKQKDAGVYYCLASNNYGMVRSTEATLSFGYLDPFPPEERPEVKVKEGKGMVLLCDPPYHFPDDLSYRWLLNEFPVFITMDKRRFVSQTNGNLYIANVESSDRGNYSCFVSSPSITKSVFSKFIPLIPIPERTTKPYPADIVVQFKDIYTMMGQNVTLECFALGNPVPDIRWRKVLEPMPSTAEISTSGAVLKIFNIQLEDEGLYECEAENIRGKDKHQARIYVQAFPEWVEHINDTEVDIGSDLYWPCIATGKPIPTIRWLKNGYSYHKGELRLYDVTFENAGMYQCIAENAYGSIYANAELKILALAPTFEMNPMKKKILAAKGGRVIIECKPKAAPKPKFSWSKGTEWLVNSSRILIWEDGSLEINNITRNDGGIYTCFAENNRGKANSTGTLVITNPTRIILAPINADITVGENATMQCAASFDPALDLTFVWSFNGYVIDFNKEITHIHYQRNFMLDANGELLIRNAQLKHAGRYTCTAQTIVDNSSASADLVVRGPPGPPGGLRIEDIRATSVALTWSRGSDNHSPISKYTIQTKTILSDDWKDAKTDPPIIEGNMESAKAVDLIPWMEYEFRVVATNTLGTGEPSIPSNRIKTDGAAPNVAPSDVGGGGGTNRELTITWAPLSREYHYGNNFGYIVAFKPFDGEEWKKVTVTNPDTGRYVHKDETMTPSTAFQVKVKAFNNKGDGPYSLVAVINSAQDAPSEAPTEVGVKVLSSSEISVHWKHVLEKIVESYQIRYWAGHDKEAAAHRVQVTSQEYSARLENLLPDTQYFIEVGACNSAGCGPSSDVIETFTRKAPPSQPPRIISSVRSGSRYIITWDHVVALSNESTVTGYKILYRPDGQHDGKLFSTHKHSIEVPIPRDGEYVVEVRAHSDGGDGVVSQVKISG
# B1: contactin 1: high mannose glycans (GnTI- HEK293) (protein)
# parent chain: MKMPLLVSHLLLISLTSCLGDFTWHRRYGHGVSEEDKGFGPIFEEQPINTIYPEESLEGKVSLNCRARASPFPVYKWRMNNGDVDLTNDRYSMVGGNLVINNPDKQKDAGVYYCLASNNYGMVRSTEATLSFGYLDPFPPEERPEVKVKEGKGMVLLCDPPYHFPDDLSYRWLLNEFPVFITMDKRRFVSQTNGNLYIANVESSDRGNYSCFVSSPSITKSVFSKFIPLIPIPERTTKPYPADIVVQFKDIYTMMGQNVTLECFALGNPVPDIRWRKVLEPMPSTAEISTSGAVLKIFNIQLEDEGLYECEAENIRGKDKHQARIYVQAFPEWVEHINDTEVDIGSDLYWPCIATGKPIPTIRWLKNGYSYHKGELRLYDVTFENAGMYQCIAENAYGSIYANAELKILALAPTFEMNPMKKKILAAKGGRVIIECKPKAAPKPKFSWSKGTEWLVNSSRILIWEDGSLEINNITRNDGGIYTCFAENNRGKANSTGTLVITNPTRIILAPINADITVGENATMQCAASFDPALDLTFVWSFNGYVIDFNKEITHIHYQRNFMLDANGELLIRNAQLKHAGRYTCTAQTIVDNSSASADLVVRGPPGPPGGLRIEDIRATSVALTWSRGSDNHSPISKYTIQTKTILSDDWKDAKTDPPIIEGNMESAKAVDLIPWMEYEFRVVATNTLGTGEPSIPSNRIKTDGAAPNVAPSDVGGGGGTNRELTITWAPLSREYHYGNNFGYIVAFKPFDGEEWKKVTVTNPDTGRYVHKDETMTPSTAFQVKVKAFNNKGDGPYSLVAVINSAQDAPSEAPTEVGVKVLSSSEISVHWKHVLEKIVESYQIRYWAGHDKEAAAHRVQVTSQEYSARLENLLPDTQYFIEVGACNSAGCGPSSDVIETFTRKAPPSQPPRIISSVRSGSRYIITWDHVVALSNESTVTGYKILYRPDGQHDGKLFSTHKHSIEVPIPRDGEYVVEVRAHSDGGDGVVSQVKISGVSTLSSSLLSLLLPSLGFLVYSEF
# B2: contactin 1: kifunensine on both cell types (protein)
# parent chain: B1 parent chain
# B3: contactin 1: kifunensine on contactin 1 cells (protein)
# parent chain: B1 parent chain
# B4: contactin 1: kifunensine (protein)
# parent chain: B1 parent chain
# B5: neurofascin 155^Ig1–6 (residues 25–633), high mannose glycans (domain or fragment)
# chain: IEIPMDLTQPPTITKQSVKDHIVDPRDNILIECEAKGNPAPSFHWTRNSRFFNIAKDPRVSMRRRSGTLVIDFRSGGRPEEYEGEYQCFARNKFGTALSNRIRLQVSKSPLWPKENLDPVVVQEGAPLTLQCNPPPGLPSPVIFWMSSSMEPITQDKRVSQGHNGDLYFSNVMLQDMQTDYSCNARFHFTHTIQQKNPFTLKVLTNNPYNDSSLRNHPDIYSARGVAERTPSFMYPQGTSSSQMVLRGMDLLLECIASGVPTPDIAWYKKGGDLPSNKAKFENFNKALRITNVSEEDSGEYFCLASNKMGSIRHTISVRVKAAPYWLDEPKNLILAPGEDGRLVCRANGNPKPTVQWMVNGEPLQSAPPNPNREVAGDTIIFRDTQISSRAVYQCNTSNEHGYLLANAFVSVLDVPPRMLSARNQLIRVILYNRTRLDCPFFGSPIPTLRWFKNGQGSNLDGGNYHVYENGSLEIKMIRKEDQGIYTCVATNILGKAENQVRLEVKDPTRIYRMPEDQVAKRGTTVQLECRVKHDPSLKLTVSWLKDDEPLYIGNRMKKEDDSLTIFGVAERDQGSYTCMASTELDQDLAKAYLTVLADQATPTNRLAA
# modifications: N-linked high mannose glycans (glycans at Asn316, Asn420, Asn457 and Asn494 are named)
# B6: contactin 1^Ig1–6 (residues 21–604), high mannose glycans (domain or fragment, mouse, UniProt P12960 21-604, looked up)
# chain: DFTWHRRYGHGVSEEDKGFGPIFEEQPINTIYPEESLEGKVSLNCRARASPFPVYKWRMNNGDVDLTNDRYSMVGGNLVINNPDKQKDAGVYYCLASNNYGMVRSTEATLSFGYLDPFPPEERPEVKVKEGKGMVLLCDPPYHFPDDLSYRWLLNEFPVFITMDKRRFVSQTNGNLYIANVESSDRGNYSCFVSSPSITKSVFSKFIPLIPIPERTTKPYPADIVVQFKDIYTMMGQNVTLECFALGNPVPDIRWRKVLEPMPSTAEISTSGAVLKIFNIQLEDEGLYECEAENIRGKDKHQARIYVQAFPEWVEHINDTEVDIGSDLYWPCIATGKPIPTIRWLKNGYSYHKGELRLYDVTFENAGMYQCIAENAYGSIYANAELKILALAPTFEMNPMKKKILAAKGGRVIIECKPKAAPKPKFSWSKGTEWLVNSSRILIWEDGSLEINNITRNDGGIYTCFAENNRGKANSTGTLVITNPTRIILAPINADITVGENATMQCAASFDPALDLTFVWSFNGYVIDFNKEITHIHYQRNFMLDANGELLIRNAQLKHAGRYTCTAQTIVDNSSASADLVVRG
# modifications: N-linked high mannose glycans (glycans at Asn208, Asn258 and Asn521 are named)
# notes: contactin 1, mouse, domains Ig1 to Ig6, residues 21–604; template Image Clone 30099512; Vector pUPE107.03 supplies a cystatin secretion signal peptide; also called CNTN1^Ig1–6; contactin 1^Ig1–6 HM; source: HEK293-ES (GnTI−, EBNA1-expressing HEK293), secreted, purified (Ni Sepharose excel, SEC)
# B7: contactin 1^fe (full ectodomain, residues 21–996), complex glycans (domain or fragment, mouse, UniProt P12960 21-996, looked up)
# chain: T1 chain
# modifications: N-linked complex glycans
# notes: contactin 1, mouse, full ectodomain, residues 21–996; template Image Clone 30099512; Same chain as m7, other host and glycan type; also called contactin 1^fe CG; source: HEK293-E (EBNA1-expressing HEK293), secreted, purified (Ni Sepharose excel, SEC)
# B8: contactin 1^fe Leu279Arg, high mannose glycans (domain or fragment, mouse, UniProt P12960 21-996, looked up)
# chain: T1 chain with L259R
# modifications: N-linked high mannose glycans
# notes: contactin 1, mouse, full ectodomain, residues 21–996, Leu279Arg; template Image Clone 30099512; also called Leu279Arg contactin 1^fe; Contactin 1^fe Leu279Arg HM
# B9: contactin 1^fe (full ectodomain, residues 21–996), high mannose glycans (domain or fragment, mouse, UniProt P12960 21-996, looked up)
# chain: T1 chain
# modifications: N-linked high mannose glycans
# notes: contactin 1, mouse, full ectodomain, residues 21–996; template Image Clone 30099512; Vector pUPE107.03 supplies a cystatin secretion signal peptide; also called contactin 1^fe HM; source: HEK293-ES (GnTI−, EBNA1-expressing HEK293), secreted, purified (Ni Sepharose excel, SEC)
# Assays:
# SAXS Kratky plots = details: glycan changed form; control: contactin 1 with complex glycans
# [1] = K562 cell clustering, co-clustering ratio; details: glycan changed form; control: untreated contactin 1 and neurofascin 155 K562 cells
# [2] = K562 cell clustering index; details: glycan changed form; control: untreated contactin 1 K562 cells
# [3] = target: contactin 1^Ig1–6 HM, C-terminally biotinylated SPR ligand (mouse) (UniProt P12960); assay: SPR; SPR imaging (MX96 SPRi); C-terminally biotinylated contactin 1 ligands spotted on a P-STREP SensEye chip, neurofascin 155^Ig1–6 as analyte; 25 °C; 25 mM HEPES pH 7.5, 150 mM NaCl with 0.005% Tween-20; equilibrium response fitted with a 1:1 Langmuir model
# [4] = target: neurofascin 155^Ig1–6 (residues 25–633), high mannose glycans (mouse); assay: SEC-MALS + other: SAXS; dimer to monomers; estimate from the concentration dependence of peak position, molecular weight and Rg; 25 mM HEPES pH 7.5, 150 mM NaCl
# [5] = target: T1, contactin 1^fe HM (full ectodomain, …); assay: SPR
# [6] = target: the molecule itself; assay: AUC; sedimentation velocity, c(s) distribution; higher concentration (36 µM contactin 1^Ig1–6, 22 µM contactin 1^fe), 3 mm centerpieces; 25 mM HEPES pH 7.5, 150 mM NaCl, 20 °C; abundances relative to normalized monomer abundance
# [7] = target: the molecule itself; assay: AUC; sedimentation velocity, c(s) distribution; low concentration (9 µM contactin 1^Ig1–6, 5 µM contactin 1^fe), 12 mm centerpieces; 25 mM HEPES pH 7.5, 150 mM NaCl, 20 °C; abundances relative to normalized monomer abundance
# [8] = target: the molecule itself; assay: native MS; 2.5 µM protein in 150 mM ammonium acetate pH 7.5; static nano-electrospray, LCT time-of-flight
Binder,Dimer abundance (%) [6],Dimer abundance (%) [7],Trace amounts higher order species [7],Trimer abundance (%) [7],Trimer abundance (%) [6],stoichiometry N [8],further results
B1,–,–,–,–,–,–,structure_or_conformation (SAXS Kratky plots): no change
B2,–,–,–,–,–,–,other: heterophilic cell co-clustering [1]: no change
B3,–,–,–,–,–,–,other: heterophilic cell co-clustering [1]: increases
B4,–,–,–,–,–,–,other: homophilic cell clustering [2]: no change
B5,–,–,–,–,–,–,Kd [3]: 220 nM; Kd [4]: 5 to 30 µM; Kd [5]: 270 nM and 310 nM
B6,0.1%,2.4%,0.6%,0.8%,–,–,–
B7,9.8%,9.9%,4.6%,3.4%,4%,2,–
B8,5.7%,7.3%,1.4%,8.7%,6.7%,≤ 6,–
B9,2.9%,11.7%,–,1.8%,0.3%,2,–
